The text below walks through data of patent US20250002605A1 (WUHAN YZY BIOPHARMA, published 2025).

Assay [1] has as its target T1, human EpCAM antigen (SB, Cat: 10694-H08H) (human, UniProt P16422 24-265).
T1 construct: Bought antigen immobilised on a CM5 chip
T1 sequence (looked up): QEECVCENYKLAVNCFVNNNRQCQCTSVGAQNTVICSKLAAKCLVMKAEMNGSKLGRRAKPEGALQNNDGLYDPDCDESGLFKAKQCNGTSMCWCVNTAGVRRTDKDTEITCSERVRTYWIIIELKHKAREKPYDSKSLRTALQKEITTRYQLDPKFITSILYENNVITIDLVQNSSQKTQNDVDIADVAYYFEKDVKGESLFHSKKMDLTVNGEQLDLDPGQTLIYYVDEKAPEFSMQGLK
In words: SPR (Biacore T200), antigen amine-coupled on CM5, antibody as analyte, 1:1 fit; D0 sample.

In assay [2] the target is T2, human CD3 antigen (SB, Cat: CT038-H2508H) (human, UniProt P07766 23-126; P04234 22-105). The description is as above.
The target of assay [3] is T3, human EpCAM on the cell surface (human, UniProt P16422 24-314).
T3 construct: whole, on cells; also called EpCAM of cells; HCT116 cells
T3 sequence (looked up): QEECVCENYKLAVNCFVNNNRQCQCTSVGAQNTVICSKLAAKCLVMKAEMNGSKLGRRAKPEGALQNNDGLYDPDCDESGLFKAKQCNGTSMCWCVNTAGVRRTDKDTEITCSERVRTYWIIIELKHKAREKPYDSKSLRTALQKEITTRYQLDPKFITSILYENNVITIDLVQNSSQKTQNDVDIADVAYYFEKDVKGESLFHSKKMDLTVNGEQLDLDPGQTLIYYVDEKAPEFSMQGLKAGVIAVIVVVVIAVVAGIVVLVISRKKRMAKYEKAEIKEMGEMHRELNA
The assay can be described thus: flow cytometry (FACS) on HCT116 cells, PE anti-human IgG Fc detection.

The target of assay [4] is T1, human EpCAM antigen (SB, Cat: …). In words: SPR (Biacore T200), antigen amine-coupled on CM5, antibody as analyte, 1:1 fit; D14 sample after 14 days at 40 C.
For assay [5], the target named is T2, human CD3 antigen (SB, Cat: …). The description is as above.
Assay [6] deals with T3, human EpCAM on the cell surface. The assay can be described thus: cell-based or functional assay.
Assay [7] concerns the target CD3 on Jurkat cells. In words: cell-based or functional assay.
The target in assay [8] is T2, human CD3 antigen (SB, Cat: …). In words: SPR (Biacore T200), CD3 antigen amine-coupled on CM5, antibody as analyte, 1:1 fit.
Assay [9] deals with T3, human EpCAM on the cell surface. The assay can be described thus: cell-based or functional assay. This is another data set of the same source.
The target in assay [10] is CD3 on Jurkat cells. The assay can be described thus: cell-based or functional assay. This is another data set of the same source.

B1: M701B (bispecific antibody, human IgG1, kappa)
light: ELVMTQSPSSLTVTAGEKVTMSCKSSQSLLNSGNQKNYLTWYQQKPGQPPKLLIYWASTRESGVPDRFTGSGSGTDFTLTISSVQAEDLAVYYCQNDYSYPLTFGAGTKLEIKRTVAAPSVFIFPPSDEQLKSGTASVVCLLNNFYPREAKVQWKVDNALQSGNSQESVTEQDSKDSTYSLSSTLTLSKADYEKHKVYACEVTHQGLSSPVTKSFNRGEC
heavy: EVQLLEQSGAELVRPGTSVKISCKASGYAFTNYWLGWVKQRPGHGLEWIGDIFPGSGNIHYNEKFKGKATLTADKSSSTAYMQLSSLTFEDSAVYFCARLRNWDEPMDYWGQGTTVTVSSASTKGPSVFPLAPSSKSTSGGTAALGCLVKDYFPEPVTVSWNSGALTSGVHTFPAVLQSSGLYSLSSVVTVPSSSLGTQTYICNVNHKPSNTKVDKKVEPKSCDKTHTCPPCPAPELLGGPSVFLFPPKPKDTLMISRTPEVTCVVVDVSHEDPEVKFNWYVDGVEVHNAKTKPREEQYNSTYRVVSVLTVLHQDWLNGKEYKCKVSNKALPAPIEKTISKAKGQPREPQVYTLPPSRDELTKNQVSLWCLVKGFYPSDIAVEWESNGQPENNYDTTPPVLDSDGSFFLYSDLTVDKSRWQQGNVFSCSVMHEALHNHYTQKSLSLSPGK
chain: QVQLVESGGGVVQPGRSLRLSCAASGFTFSTYAMNWVRQAPGKGLEWVARIRSKYNNYATYYADSVKDRFTISRDDSKNTLYLQMNSLRAEDTAVYYCARHGNFGNSYVSWFAYWGQGTLVTVSSGGGGSGGGGSGGGGSQTVVTQEPSLTVSPGGTVTLTCRSSTGAVTTSNYANWVQQKPGQAPRGLIGGTNKRAPGVPARFSGSLLGGKAALTLSGVQPEDEAEYYCALWYSNLWVFGGGTKVEIKGAAAEPKSCDKTHTCPPCPAPELLGGPSVFLFPPKPKDTLMISRTPEVTCVVVDVSHEDPEVKFNWYVDGVEVHNAKTKPREEQYNSTYRVVSVLTVLHQDWLNGKEYKCKVSNKALPAPIEKTISKAKGQPREPQVYTLPPSRDELTKNQVSLTCRVKGFYPSDIAVEWESNGQPENNYKTTPPVLKSDGSFFLASKLTVDKSRWQQGNVFSCSVMHEALHNHYTQKSLSLSPGK
notes: YBODY format; also called bispecific antibody M701B
In the case of B1, the Kd in assay [1] stood at 20 nM; in assay [2], 28.3 nM; in assay [4], 22.6 nM; in assay [5], 31.5 nM; in assay [8], 28.3 nM. A half-maximal effect in assay [3] (EC50) was put at 3.72 nM. The “EC50 (read off the curve), cell bridging of HCT116 and Jurkat [panel C]” value (in [6]; with CD3 on Jurkat cells [7]) was roughly 10 ng/mL each time. Besides, the “cell bridging of HCT116 and Jurkat cells (CFSE/PKH26 double-positive cells, flow cytometry)” value (in assay [9]; in the assay with CD3 on Jurkat cells [10]) was ~40 % of the total PKH26-positive cells each time.
